How the values were obtained:
[1] = target: Nef(1 to 115)-(L112A/Y115A)-GFP-Flag (HIV-1 (NL4-3)) (UniProt P03406); experiment: co-IP; HEK293T cotransfected 24 h with LMP7-Myc and GFP-Flag or Nef(1 to 115)-GFP-Flag constructs; anti-Flag IP; blot with anti-Myc
[2] = target: Nef(1 to 115)-(Y115A)-GFP-Flag (HIV-1 (NL4-3)) (UniProt P03406); experiment: as above
[3] = target: Nef(1 to 115)-(L112A)-GFP-Flag (HIV-1 (NL4-3)) (UniProt P03406); experiment: as above
[4] = target: LMP7-Myc, P28062-2; experiment: co-IP (anti-Flag IP, anti-Myc IB), band intensity quantified; settings: 293T cells cotransfected for 24 h; parent: 100; read off a plot
[5] = target: proLMP7-Flag (UniProt P28062); experiment: co-IP; HEK293T cotransfected 24 h with Nef-HA constructs and LMP7-Flag constructs; RIPA lysates; anti-Flag antibody and protein G-Sepharose at 4°C overnight; blot with anti-HA
[6] = target: LMP7-His (biotinylated) (UniProt P28062); experiment: BLI; biotinylated LMP7 on streptavidin biosensors; GST or Nef-GST in solution; PBS; 1:1 binding model

Sequence of LMP7-Myc, P28062-2 (P28062 other isoform, or with tags, fused parts or gaps): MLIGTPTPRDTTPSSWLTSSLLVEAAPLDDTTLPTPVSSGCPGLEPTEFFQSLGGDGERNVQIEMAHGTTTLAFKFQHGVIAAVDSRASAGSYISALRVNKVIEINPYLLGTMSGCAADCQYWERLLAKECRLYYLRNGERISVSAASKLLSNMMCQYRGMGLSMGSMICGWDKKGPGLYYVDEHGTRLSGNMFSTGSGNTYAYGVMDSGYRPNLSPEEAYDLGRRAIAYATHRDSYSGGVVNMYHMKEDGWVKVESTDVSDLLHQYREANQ

Row | Substance | percent of parent [4] [%] | further results
1 | LMP7-Myc (from UniProt P28062-2 1-272) (natural protein) | – | relative co-IP band intensity (Nef(1 to 115) = 100%) [1]: 1.4%; relative co-IP band intensity (Nef(1 to 115) = 100%) [2]: 14%; relative co-IP band intensity (Nef(1 to 115) = 100%) [3]: 19%
2 | Nef(1 to 115)-GFP-Flag (from UniProt P03406) 101-104A | 53 | –
3 | Nef(1 to 115)-GFP-Flag (from UniProt P03406) 105-108A | 120 | –
4 | Nef(1 to 115)-GFP-Flag (from UniProt P03406) D111A | 130 | –
5 | Nef(1 to 115)-GFP-Flag (from UniProt P03406) I109A | 60 | –
6 | Nef(1 to 115)-GFP-Flag (from UniProt P03406) I109A; L110A; D111A; L112A | 28 | –
7 | Nef(1 to 115)-GFP-Flag (from UniProt P03406) I114A | 47 | –
8 | Nef(1 to 115)-GFP-Flag (from UniProt P03406) L110A | 60 | –
9 | Nef(1 to 115)-GFP-Flag (from UniProt P03406) W113A | 97 | –
10 | Nef(1 to 115)-GFP-Flag (from UniProt P03406) W113A; I114A; Y115A | 31 | –
11 | Nef(1 to 130)-HA (from UniProt P03406 1-130) (domain or fragment) | – | strength of the interaction (co-IP band) relative to Nef(1 to 115) [5]: 40 % higher; strength of the interaction (co-IP band) relative to Nef(1 to 149) [5]: 20 % stronger
12 | Nef-GST (from UniProt P03406 1-206) (natural protein) | – | BLI wavelength shift [6]: 71.1 pm; Kd [6]: 735 nM

Source: publication PMC7593969
